Earlier results as cited in paper PMC10426772.

Legend:
[1] = target: IGF receptor (IGF1R, brain capillary) (Homo sapiens) (UniProt P08069); test: radio-receptor assay with [125I]-IGF2
[2] = target: IGF receptor (human BBB) (Homo sapiens) (UniProt P08069); test: radio-receptor assay
[3] = target: insulin receptor (HIR, brain capillary) (Homo sapiens) (UniProt P06213); test: radio-receptor assay with [125I]-insulin
[4] = target: leptin receptor (Homo sapiens) (UniProt P48357); test: radio-receptor assay
Chain of leptin receptor (Homo sapiens) (P48357 22-839): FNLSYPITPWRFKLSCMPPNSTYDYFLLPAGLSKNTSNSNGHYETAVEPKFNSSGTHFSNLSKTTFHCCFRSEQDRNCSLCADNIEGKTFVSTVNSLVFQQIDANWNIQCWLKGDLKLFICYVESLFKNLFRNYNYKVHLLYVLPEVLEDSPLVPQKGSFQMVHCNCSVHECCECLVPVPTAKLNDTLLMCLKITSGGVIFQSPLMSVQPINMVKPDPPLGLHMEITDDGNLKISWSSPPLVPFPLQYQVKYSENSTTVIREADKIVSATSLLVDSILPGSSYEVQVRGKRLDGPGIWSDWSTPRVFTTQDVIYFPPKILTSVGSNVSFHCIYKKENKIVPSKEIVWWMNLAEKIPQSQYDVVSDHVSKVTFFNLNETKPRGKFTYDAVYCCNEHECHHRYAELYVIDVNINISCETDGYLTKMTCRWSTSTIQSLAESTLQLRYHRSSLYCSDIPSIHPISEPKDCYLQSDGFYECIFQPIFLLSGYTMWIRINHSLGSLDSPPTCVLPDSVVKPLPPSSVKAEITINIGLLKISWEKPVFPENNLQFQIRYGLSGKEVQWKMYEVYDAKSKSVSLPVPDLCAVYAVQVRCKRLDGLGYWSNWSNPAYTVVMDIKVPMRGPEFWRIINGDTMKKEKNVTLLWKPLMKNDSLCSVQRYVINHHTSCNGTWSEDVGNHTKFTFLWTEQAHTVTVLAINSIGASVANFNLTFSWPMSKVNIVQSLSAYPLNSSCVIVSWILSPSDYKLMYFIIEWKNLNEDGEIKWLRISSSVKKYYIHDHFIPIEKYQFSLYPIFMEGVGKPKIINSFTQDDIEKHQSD

Chain of insulin (P01308 90-110): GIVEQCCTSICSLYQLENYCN
Chain of leptin (P41159 22-167): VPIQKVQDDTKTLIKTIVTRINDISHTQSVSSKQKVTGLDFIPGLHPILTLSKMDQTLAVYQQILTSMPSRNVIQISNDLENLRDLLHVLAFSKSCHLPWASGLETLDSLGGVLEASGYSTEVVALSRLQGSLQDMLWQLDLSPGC

Substance: IGF2 (from UniProt P01344)
- Kd [1]: 1.1 nM
- Kd [2]: 1.1 nM

Substance: insulin (from UniProt P01308)
- Kd [3]: 1.2 nM

Substance: leptin (from UniProt P41159)
- Kd [4]: 5.1 nM
